According to patent publication US20240392271, “ENGINEERED CASX REPRESSOR SYSTEMS” (Scribe Therapeutics Inc., published 2024):

How the values were obtained:
Test in all cases: cell_activity; PAM TTC; day 50
ELXR3-ZIM3 (#3.A) = target: T1, ELXR3-ZIM3 (#3.A) (synthetic construct); details: tags: DNMT3A CD, DNMT3L ID, ZIM3 KRAB fusion, NLS
T1 chain: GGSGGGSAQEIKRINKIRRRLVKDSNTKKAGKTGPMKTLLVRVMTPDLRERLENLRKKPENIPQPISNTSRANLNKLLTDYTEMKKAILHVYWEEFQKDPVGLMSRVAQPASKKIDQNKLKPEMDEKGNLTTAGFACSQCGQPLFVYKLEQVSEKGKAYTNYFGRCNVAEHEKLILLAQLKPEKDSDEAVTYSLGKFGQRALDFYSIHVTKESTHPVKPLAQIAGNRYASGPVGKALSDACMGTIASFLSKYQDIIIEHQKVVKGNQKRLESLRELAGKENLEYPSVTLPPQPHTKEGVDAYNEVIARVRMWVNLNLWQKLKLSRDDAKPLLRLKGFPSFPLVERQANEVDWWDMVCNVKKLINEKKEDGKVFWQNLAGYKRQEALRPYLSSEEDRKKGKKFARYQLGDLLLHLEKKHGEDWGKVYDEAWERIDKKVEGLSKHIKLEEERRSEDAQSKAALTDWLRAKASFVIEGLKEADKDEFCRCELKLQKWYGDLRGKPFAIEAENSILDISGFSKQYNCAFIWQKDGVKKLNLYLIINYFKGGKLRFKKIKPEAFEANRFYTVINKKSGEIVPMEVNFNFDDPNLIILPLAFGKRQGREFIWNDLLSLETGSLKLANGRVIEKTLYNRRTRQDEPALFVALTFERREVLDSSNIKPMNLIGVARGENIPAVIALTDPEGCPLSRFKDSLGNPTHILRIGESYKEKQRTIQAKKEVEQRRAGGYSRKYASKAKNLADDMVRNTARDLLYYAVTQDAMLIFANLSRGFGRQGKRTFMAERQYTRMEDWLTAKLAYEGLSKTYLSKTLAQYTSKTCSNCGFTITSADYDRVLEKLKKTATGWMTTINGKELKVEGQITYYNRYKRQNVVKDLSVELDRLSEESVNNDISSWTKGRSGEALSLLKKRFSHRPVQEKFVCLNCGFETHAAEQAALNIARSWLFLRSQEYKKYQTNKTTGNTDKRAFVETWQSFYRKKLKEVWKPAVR

ELXR3-ZNF10 (#3.B) = target: T2, ELXR3-ZNF10 (#3.B) (synthetic construct); details: tags: DNMT3A CD, DNMT3L ID, ZNF10 KRAB fusion, NLS
T2 chain: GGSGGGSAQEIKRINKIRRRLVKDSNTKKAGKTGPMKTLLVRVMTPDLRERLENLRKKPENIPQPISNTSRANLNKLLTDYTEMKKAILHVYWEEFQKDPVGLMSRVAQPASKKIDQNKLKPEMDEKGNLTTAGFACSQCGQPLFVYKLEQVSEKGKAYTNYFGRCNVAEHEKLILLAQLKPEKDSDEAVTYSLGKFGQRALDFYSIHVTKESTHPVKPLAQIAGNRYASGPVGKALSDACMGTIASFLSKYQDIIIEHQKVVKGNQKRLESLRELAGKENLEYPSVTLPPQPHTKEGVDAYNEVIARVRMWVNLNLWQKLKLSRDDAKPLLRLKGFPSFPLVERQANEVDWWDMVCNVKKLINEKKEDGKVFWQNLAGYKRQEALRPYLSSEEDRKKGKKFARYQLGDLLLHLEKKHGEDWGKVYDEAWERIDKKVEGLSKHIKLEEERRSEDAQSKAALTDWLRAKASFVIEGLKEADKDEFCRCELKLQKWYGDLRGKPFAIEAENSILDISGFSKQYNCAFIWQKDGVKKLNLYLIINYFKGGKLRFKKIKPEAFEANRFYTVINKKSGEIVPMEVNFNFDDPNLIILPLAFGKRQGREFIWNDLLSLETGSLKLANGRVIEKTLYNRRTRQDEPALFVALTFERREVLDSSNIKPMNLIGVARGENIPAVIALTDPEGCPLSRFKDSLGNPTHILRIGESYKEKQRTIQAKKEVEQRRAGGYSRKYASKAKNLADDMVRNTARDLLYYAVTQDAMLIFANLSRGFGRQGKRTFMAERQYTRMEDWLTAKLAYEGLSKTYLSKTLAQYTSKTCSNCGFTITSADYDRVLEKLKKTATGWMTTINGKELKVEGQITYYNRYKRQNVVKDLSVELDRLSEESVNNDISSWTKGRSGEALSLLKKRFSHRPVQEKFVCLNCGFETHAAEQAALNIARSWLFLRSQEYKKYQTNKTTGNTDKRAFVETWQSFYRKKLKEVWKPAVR

ELXR1-ZIM3 (#1.A) = target: T3, ELXR1-ZIM3 (#1.A) (synthetic construct); details: tags: DNMT3A CD, DNMT3L ID, ZIM3 KRAB fusion, NLS
T3 chain: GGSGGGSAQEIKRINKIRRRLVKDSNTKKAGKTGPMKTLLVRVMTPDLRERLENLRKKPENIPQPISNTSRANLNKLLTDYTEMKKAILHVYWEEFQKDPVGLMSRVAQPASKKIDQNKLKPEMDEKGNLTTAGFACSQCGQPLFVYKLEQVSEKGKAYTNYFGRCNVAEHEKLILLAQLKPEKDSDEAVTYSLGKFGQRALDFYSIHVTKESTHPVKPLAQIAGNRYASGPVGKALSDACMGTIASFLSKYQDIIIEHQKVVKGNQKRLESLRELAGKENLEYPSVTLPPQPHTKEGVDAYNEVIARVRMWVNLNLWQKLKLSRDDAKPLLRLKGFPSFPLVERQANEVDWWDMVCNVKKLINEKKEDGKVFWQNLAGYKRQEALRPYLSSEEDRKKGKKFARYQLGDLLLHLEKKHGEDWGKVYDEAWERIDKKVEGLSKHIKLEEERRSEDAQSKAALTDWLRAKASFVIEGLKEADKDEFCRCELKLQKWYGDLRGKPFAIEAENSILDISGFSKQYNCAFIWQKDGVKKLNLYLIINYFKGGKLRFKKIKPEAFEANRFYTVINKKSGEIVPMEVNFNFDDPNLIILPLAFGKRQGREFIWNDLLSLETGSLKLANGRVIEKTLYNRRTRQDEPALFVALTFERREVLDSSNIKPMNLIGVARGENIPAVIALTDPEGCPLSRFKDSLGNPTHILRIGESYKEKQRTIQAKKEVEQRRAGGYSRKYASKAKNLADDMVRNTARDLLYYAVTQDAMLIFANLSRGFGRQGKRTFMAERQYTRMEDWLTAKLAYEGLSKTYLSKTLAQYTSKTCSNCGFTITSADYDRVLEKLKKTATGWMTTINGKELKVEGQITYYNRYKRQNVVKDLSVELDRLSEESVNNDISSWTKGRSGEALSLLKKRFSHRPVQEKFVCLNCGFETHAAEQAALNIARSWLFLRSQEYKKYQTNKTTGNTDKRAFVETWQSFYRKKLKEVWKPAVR

ELXR1-ZNF10 (#1.B) = target: T4, ELXR1-ZNF10 (#1.B) (synthetic construct); details: tags: DNMT3A CD, DNMT3L ID, ZNF10 KRAB fusion, NLS
T4 chain: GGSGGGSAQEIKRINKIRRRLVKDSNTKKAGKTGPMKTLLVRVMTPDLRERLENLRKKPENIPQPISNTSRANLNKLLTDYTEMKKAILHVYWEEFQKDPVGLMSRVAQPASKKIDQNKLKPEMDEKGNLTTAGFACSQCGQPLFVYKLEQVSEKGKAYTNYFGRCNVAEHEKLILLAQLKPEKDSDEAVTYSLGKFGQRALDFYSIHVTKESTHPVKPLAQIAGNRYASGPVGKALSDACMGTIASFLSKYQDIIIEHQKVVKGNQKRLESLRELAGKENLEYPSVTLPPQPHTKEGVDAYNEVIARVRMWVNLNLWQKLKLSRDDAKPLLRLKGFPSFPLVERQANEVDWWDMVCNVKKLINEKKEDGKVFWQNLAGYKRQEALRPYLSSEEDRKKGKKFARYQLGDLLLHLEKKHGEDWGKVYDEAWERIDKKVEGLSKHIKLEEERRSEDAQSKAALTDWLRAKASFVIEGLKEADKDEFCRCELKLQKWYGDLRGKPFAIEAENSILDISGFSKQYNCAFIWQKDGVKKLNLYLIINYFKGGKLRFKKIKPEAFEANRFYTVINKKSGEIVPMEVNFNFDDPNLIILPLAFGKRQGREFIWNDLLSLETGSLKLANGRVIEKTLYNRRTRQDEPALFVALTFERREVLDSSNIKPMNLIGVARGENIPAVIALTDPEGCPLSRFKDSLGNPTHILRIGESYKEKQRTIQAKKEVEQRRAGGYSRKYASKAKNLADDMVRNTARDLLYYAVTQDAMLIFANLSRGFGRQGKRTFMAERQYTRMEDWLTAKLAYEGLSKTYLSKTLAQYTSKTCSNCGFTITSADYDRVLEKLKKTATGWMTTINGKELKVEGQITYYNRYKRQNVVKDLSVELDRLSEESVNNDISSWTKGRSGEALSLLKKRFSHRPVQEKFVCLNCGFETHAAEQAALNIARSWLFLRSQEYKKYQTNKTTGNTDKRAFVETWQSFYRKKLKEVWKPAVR

ELXR2-ZIM3 (#2.A) = target: T5, ELXR2-ZIM3 (#2.A) (synthetic construct); details: tags: DNMT3A CD, DNMT3L ID, ZIM3 KRAB fusion, NLS
T5 chain: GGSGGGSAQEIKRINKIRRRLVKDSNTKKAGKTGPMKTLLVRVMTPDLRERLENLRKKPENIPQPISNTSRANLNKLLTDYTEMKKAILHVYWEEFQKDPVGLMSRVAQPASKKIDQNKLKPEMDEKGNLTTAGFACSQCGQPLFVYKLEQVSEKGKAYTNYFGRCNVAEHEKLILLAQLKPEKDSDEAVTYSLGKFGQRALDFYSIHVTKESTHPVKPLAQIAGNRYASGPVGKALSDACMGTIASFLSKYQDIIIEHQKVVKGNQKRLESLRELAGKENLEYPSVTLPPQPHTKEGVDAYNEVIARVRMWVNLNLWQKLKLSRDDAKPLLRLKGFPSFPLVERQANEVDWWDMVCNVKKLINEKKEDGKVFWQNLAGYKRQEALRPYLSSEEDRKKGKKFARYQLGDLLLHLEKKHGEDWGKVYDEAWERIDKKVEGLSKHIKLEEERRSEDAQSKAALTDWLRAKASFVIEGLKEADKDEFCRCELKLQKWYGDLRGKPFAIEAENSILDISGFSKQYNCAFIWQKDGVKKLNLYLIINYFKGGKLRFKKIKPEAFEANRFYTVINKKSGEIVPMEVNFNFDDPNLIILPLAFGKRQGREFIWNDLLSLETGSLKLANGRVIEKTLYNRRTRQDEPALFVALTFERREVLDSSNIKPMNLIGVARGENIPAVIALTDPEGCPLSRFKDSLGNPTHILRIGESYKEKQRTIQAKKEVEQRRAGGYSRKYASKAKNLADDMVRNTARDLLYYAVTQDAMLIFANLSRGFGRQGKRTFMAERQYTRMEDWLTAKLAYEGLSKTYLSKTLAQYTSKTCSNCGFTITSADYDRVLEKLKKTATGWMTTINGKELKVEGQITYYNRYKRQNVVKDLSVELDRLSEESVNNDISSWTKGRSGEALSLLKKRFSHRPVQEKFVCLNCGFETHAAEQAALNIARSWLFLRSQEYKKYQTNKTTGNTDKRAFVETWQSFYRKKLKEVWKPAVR

B1: gRNA scaffold 174 + spacer 7.37 ; B2M target 7.37 (ssRNA ; dsDNA)
RNA: ACUGGCGCUUUUAUCUGAUUACUUUGAGAGCCAUCACCAGCGACUAUGUCGUAGUGGGUAAAGCUCCCUCUUCGGAGGGAGCAUCAAAGGGCCGAGAUGUCUCGCUCCG
DNA 1: GGCCGAGATGTCTCGCTCCG
DNA 2: CGGAGCGAGACATCTCGGCC
**Q.** B1 was tested. Which activity (ELXR3-ZIM3 (#3.A)) did it give?
**A.** The activity was 17.5 % HLA-negative cells.

**Q.** And the activity (ELXR3-ZNF10 (#3.B))?
**A.** Its activity is 17.1 % HLA-negative cells.

**Q.** What about the activity (ELXR1-ZIM3 (#1.A)) of the same binder?
**A.** The activity was 73.7 % HLA-negative cells.

**Q.** And the activity (ELXR1-ZNF10 (#1.B))?
**A.** Its activity is 70 % HLA-negative cells.

**Q.** And the activity (ELXR2-ZIM3 (#2.A))?
**A.** Its activity is 58.8 % HLA-negative cells.
